According to patent US20140080757A1 (ZEALAND PHARMA A S, published 2014):
Numbered stars: 1 amine (or outer) side, 2 acyl side, 3 side chain; on linkers, the order of the positions; unused ones are H or OH. Square brackets hold non-standard residues; d marks the D form. Side chains are listed from the residue outwards. * marks the point of attachment. γGlu = O=C(O)[C@H](CCC(=O)[*:2])N[*:1]; Palmitoyl = CCCCCCCCCCCCCCCC(=O)*; Aib = CC(C)(N)C(=O)O

T1: endogenous GLP-1 receptor of a murine insulinoma cell line (murine, UniProt O35659 22-463)
T1 sequence (looked up): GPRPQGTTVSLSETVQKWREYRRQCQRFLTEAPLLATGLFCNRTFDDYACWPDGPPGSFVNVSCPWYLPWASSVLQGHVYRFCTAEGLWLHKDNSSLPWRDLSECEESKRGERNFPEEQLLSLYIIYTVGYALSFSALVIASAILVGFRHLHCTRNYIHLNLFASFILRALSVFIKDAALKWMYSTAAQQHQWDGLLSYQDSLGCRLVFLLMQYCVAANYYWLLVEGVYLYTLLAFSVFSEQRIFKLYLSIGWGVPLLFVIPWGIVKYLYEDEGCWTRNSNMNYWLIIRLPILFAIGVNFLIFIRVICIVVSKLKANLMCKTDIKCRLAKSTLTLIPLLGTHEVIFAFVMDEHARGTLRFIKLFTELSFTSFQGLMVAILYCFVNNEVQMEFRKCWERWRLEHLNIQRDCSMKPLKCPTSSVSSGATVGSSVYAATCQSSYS


Legend:
Test in all cases: cell-based or functional assay
[1] = target: human glucagon receptor (Glucagon-R) (human, UniProt P47871 26-477)
[2] = target: human glucagon-like peptide 1 receptor (GLP-1R) (human, UniProt P43220 24-463)
[3] = target: T1, endogenous GLP-1 receptor of a murine …
[4] = target: endogenous glucagon receptor of primary rat hepatocytes (rat, UniProt P30082 27-485)
endogenous glucagon receptor of primary rat hepatocytes, sequence (P30082 27-485): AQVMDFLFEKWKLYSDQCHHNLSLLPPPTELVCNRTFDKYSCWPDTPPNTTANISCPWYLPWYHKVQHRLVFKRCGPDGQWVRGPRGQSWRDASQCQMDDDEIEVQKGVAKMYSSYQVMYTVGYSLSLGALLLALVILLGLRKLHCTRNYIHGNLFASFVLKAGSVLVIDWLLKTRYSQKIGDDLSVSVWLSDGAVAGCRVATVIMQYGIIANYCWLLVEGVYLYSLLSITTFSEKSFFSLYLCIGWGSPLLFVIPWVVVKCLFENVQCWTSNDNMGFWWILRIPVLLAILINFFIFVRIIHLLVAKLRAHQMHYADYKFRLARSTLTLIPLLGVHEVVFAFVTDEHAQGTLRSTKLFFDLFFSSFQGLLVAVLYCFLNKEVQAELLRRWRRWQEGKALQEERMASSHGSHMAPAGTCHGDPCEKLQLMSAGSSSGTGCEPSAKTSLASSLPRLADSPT

human glucagon receptor (Glucagon-R), sequence (P47871 26-477): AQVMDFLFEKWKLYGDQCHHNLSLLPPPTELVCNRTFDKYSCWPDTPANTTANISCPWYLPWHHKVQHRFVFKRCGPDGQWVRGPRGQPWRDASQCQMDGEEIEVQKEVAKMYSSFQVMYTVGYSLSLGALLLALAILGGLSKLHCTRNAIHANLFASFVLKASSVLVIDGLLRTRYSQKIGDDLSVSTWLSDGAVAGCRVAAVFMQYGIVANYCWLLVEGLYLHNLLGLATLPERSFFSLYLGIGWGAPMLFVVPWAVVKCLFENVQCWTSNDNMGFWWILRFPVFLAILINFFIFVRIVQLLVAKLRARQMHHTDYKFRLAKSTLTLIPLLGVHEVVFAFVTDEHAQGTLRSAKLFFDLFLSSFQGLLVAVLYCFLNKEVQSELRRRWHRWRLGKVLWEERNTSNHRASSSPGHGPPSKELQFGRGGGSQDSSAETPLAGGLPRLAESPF

Binder	EC50 hGCGR CHO-K1 [nM] (cAMP) [1]	EC50 hGLP-1R CHO-K1 [nM] (cAMP) [2]	Ratio GLP-1/Glucagon (EC50 hGLP-1R / EC50 hGCGR) [2]	EC50 GLP-1R (murine insulinoma cells) [nM] (cAMP) [3]	EC50 GLP-1R Rat hepat. [nM] (inhibition of glycogen synthesis) [4]
H-H[Aib]HGTFTSDYSKYLEEK([γGlu-Palmitoyl])AAHEFVEWLESA-NH2 (SMILES CCCCCCCCCCCCCCCC(=O)N[C@@H](CCC(=O)NCCCC[C@H](NC(=O)[C@H](CCC(=O)O)NC(=O)[C@H](CCC(=O)O)NC(=O)[C@H](CC(C)C)NC(=O)[C@H](Cc1ccc(O)cc1)NC(=O)[C@H](CCCCN)NC(=O)[C@H](CO)NC(=O)[C@H](Cc1ccc(O)cc1)NC(=O)[C@H](CC(=O)O)NC(=O)[C@H](CO)NC(=O)[C@@H](NC(=O)[C@H](Cc1ccccc1)NC(=O)[C@@H](NC(=O)CNC(=O)[C@H](Cc1c[nH]cn1)NC(=O)C(C)(C)NC(=O)[C@@H](N)Cc1c[nH]cn1)[C@@H](C)O)[C@@H](C)O)C(=O)N[C@@H](C)C(=O)N[C@@H](C)C(=O)N[C@@H](Cc1c[nH]cn1)C(=O)N[C@@H](CCC(=O)O)C(=O)N[C@@H](Cc1ccccc1)C(=O)N[C@H](C(=O)N[C@@H](CCC(=O)O)C(=O)N[C@@H](Cc1c[nH]c2ccccc12)C(=O)N[C@@H](CC(C)C)C(=O)N[C@@H](CCC(=O)O)C(=O)N[C@@H](CO)C(=O)N[C@@H](C)C(N)=O)C(C)C)C(=O)O) [Compound 19]	0.08 nM	0.27 nM	3.38 ratio	0.33 nM	0.06 nM
H-H[Aib]QGTFTSDYSKYLESK([γGlu-Palmitoyl])AAEDFIEWLESA-NH2 (SMILES CCCCCCCCCCCCCCCC(=O)N[C@@H](CCC(=O)NCCCC[C@H](NC(=O)[C@H](CO)NC(=O)[C@H](CCC(=O)O)NC(=O)[C@H](CC(C)C)NC(=O)[C@H](Cc1ccc(O)cc1)NC(=O)[C@H](CCCCN)NC(=O)[C@H](CO)NC(=O)[C@H](Cc1ccc(O)cc1)NC(=O)[C@H](CC(=O)O)NC(=O)[C@H](CO)NC(=O)[C@@H](NC(=O)[C@H](Cc1ccccc1)NC(=O)[C@@H](NC(=O)CNC(=O)[C@H](CCC(N)=O)NC(=O)C(C)(C)NC(=O)[C@@H](N)Cc1c[nH]cn1)[C@@H](C)O)[C@@H](C)O)C(=O)N[C@@H](C)C(=O)N[C@@H](C)C(=O)N[C@@H](CCC(=O)O)C(=O)N[C@@H](CC(=O)O)C(=O)N[C@@H](Cc1ccccc1)C(=O)N[C@H](C(=O)N[C@@H](CCC(=O)O)C(=O)N[C@@H](Cc1c[nH]c2ccccc12)C(=O)N[C@@H](CC(C)C)C(=O)N[C@@H](CCC(=O)O)C(=O)N[C@@H](CO)C(=O)N[C@@H](C)C(N)=O)[C@@H](C)CC)C(=O)O) [Compound 21]	1.32 nM	0.12 nM	0.09 ratio	0.3 nM	3.4 nM
H-H[Aib]QGTFTSDYSKYLESK([γGlu-Palmitoyl])AAHDFVEWLESA-NH2 (SMILES CCCCCCCCCCCCCCCC(=O)N[C@@H](CCC(=O)NCCCC[C@H](NC(=O)[C@H](CO)NC(=O)[C@H](CCC(=O)O)NC(=O)[C@H](CC(C)C)NC(=O)[C@H](Cc1ccc(O)cc1)NC(=O)[C@H](CCCCN)NC(=O)[C@H](CO)NC(=O)[C@H](Cc1ccc(O)cc1)NC(=O)[C@H](CC(=O)O)NC(=O)[C@H](CO)NC(=O)[C@@H](NC(=O)[C@H](Cc1ccccc1)NC(=O)[C@@H](NC(=O)CNC(=O)[C@H](CCC(N)=O)NC(=O)C(C)(C)NC(=O)[C@@H](N)Cc1c[nH]cn1)[C@@H](C)O)[C@@H](C)O)C(=O)N[C@@H](C)C(=O)N[C@@H](C)C(=O)N[C@@H](Cc1c[nH]cn1)C(=O)N[C@@H](CC(=O)O)C(=O)N[C@@H](Cc1ccccc1)C(=O)N[C@H](C(=O)N[C@@H](CCC(=O)O)C(=O)N[C@@H](Cc1c[nH]c2ccccc12)C(=O)N[C@@H](CC(C)C)C(=O)N[C@@H](CCC(=O)O)C(=O)N[C@@H](CO)C(=O)N[C@@H](C)C(N)=O)C(C)C)C(=O)O) [Compound 23]	0.25 nM	0.13 nM	0.52 ratio	0.31 nM	1.32 nM
H-H[Aib]QGTFTSDYSKYLESK([γGlu-Palmitoyl])AAEDFVEWLESA-NH2 (SMILES CCCCCCCCCCCCCCCC(=O)N[C@@H](CCC(=O)NCCCC[C@H](NC(=O)[C@H](CO)NC(=O)[C@H](CCC(=O)O)NC(=O)[C@H](CC(C)C)NC(=O)[C@H](Cc1ccc(O)cc1)NC(=O)[C@H](CCCCN)NC(=O)[C@H](CO)NC(=O)[C@H](Cc1ccc(O)cc1)NC(=O)[C@H](CC(=O)O)NC(=O)[C@H](CO)NC(=O)[C@@H](NC(=O)[C@H](Cc1ccccc1)NC(=O)[C@@H](NC(=O)CNC(=O)[C@H](CCC(N)=O)NC(=O)C(C)(C)NC(=O)[C@@H](N)Cc1c[nH]cn1)[C@@H](C)O)[C@@H](C)O)C(=O)N[C@@H](C)C(=O)N[C@@H](C)C(=O)N[C@@H](CCC(=O)O)C(=O)N[C@@H](CC(=O)O)C(=O)N[C@@H](Cc1ccccc1)C(=O)N[C@H](C(=O)N[C@@H](CCC(=O)O)C(=O)N[C@@H](Cc1c[nH]c2ccccc12)C(=O)N[C@@H](CC(C)C)C(=O)N[C@@H](CCC(=O)O)C(=O)N[C@@H](CO)C(=O)N[C@@H](C)C(N)=O)C(C)C)C(=O)O) [Compound 24]	0.92 nM	0.11 nM	0.12 ratio	0.33 nM	6.15 nM
HXQGTFTSDYSKYLEEXAAKDFIEWLESA (Aib at position 2; Lys 17 K(Hexadecanoyl-isoGlu); C-terminal amide (-NH2)) [Compound 20]	0.68 nM	0.23 nM	0.34 ratio	0.27 nM	0.39 nM
H-HSQGTFTSDYSKYLEEK([γGlu-Palmitoyl])AAKDFIEWLESA-NH2 (SMILES CCCCCCCCCCCCCCCC(=O)N[C@@H](CCC(=O)NCCCC[C@H](NC(=O)[C@H](CCC(=O)O)NC(=O)[C@H](CCC(=O)O)NC(=O)[C@H](CC(C)C)NC(=O)[C@H](Cc1ccc(O)cc1)NC(=O)[C@H](CCCCN)NC(=O)[C@H](CO)NC(=O)[C@H](Cc1ccc(O)cc1)NC(=O)[C@H](CC(=O)O)NC(=O)[C@H](CO)NC(=O)[C@@H](NC(=O)[C@H](Cc1ccccc1)NC(=O)[C@@H](NC(=O)CNC(=O)[C@H](CCC(N)=O)NC(=O)[C@H](CO)NC(=O)[C@@H](N)Cc1c[nH]cn1)[C@@H](C)O)[C@@H](C)O)C(=O)N[C@@H](C)C(=O)N[C@@H](C)C(=O)N[C@@H](CCCCN)C(=O)N[C@@H](CC(=O)O)C(=O)N[C@@H](Cc1ccccc1)C(=O)N[C@H](C(=O)N[C@@H](CCC(=O)O)C(=O)N[C@@H](Cc1c[nH]c2ccccc12)C(=O)N[C@@H](CC(C)C)C(=O)N[C@@H](CCC(=O)O)C(=O)N[C@@H](CO)C(=O)N[C@@H](C)C(N)=O)[C@@H](C)CC)C(=O)O) [Compound 22]	0.1 nM	0.24 nM	2.4 ratio	0.35 nM	0.28 nM
